± gives the standard error. For some assays here: This sample holds only a part of the variants without activity.
B1: glmS ribozyme (parent)
chain: AUAAAAGCGCCAGAACUACAGAAAUGUAGUUGACGAGGAGGAGGUUUAUCGAAUUUUCGGCGGAUGCCUCCAAA

Tests used:
Details in all cases: with glucosamine-6-phosphate
glucosamine-6-phosphate [1] = variants of: B1; experiment: kcat; higher = faster cleavage; RNA array
In short: (§1)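 Barcoded ribozyme variants were transcribed in situ on sequenced MiSeq chips by E. coli RNA polymerase. At 37 °C, a hybridised Cy3 probe tracked them while glucosamine-6-phosphate (40 μM to 10 mM) in HEPES/KCl/Mg(OAc)2 buffer flowed in and tiles were imaged over ~14 h. Per-tile medians of signals normalised to baseline and to non-cleaving reference variants were fit to one- or two-exponential decays, giving kobs. kcat and KM came from weighted Michaelis–Menten fits across concentrations.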

glucosamine-6-phosphate [2] = variants of: B1; experiment: KM; higher = weaker cofactor use; RNA array
In short: as §1

glucosamine-6-phosphate [3] = variants of: B1; experiment: self-cleavage kobs at 160 uM GlcN6P; higher = faster cleavage; RNA array
In short: as §1

glucosamine-6-phosphate [4] = variants of: B1; experiment: self-cleavage kobs at 640 uM GlcN6P; higher = faster cleavage; RNA array
In short: as §1

glucosamine-6-phosphate [5] = variants of: B1; experiment: self-cleavage kobs at 2500 uM GlcN6P; higher = faster cleavage; RNA array
In short: as §1

glucosamine-6-phosphate [6] = variants of: B1; experiment: self-cleavage kobs at 10000 uM GlcN6P; higher = faster cleavage; RNA array
In short: as §1

glucosamine-6-phosphate [7] = variants of: B1; experiment: self-cleavage kobs at 40 uM GlcN6P; higher = faster cleavage; RNA array
In short: as §1

| Variant | kcat (glucosamine-6-phosphate [1]) | KM (glucosamine-6-phosphate [2]) | self-cleavage kobs at 160 uM GlcN6P (glucosamine-6-phosphate [3]) | self-cleavage kobs at 640 uM GlcN6P (glucosamine-6-phosphate [4]) | self-cleavage kobs at 2500 uM GlcN6P (glucosamine-6-phosphate [5]) | self-cleavage kobs at 10000 uM GlcN6P (glucosamine-6-phosphate [6]) | self-cleavage kobs at 40 uM GlcN6P (glucosamine-6-phosphate [7]) |
| --- | --- | --- | --- | --- | --- | --- | --- |
| AUAAAAGCGCCAGAAGUACAGAAAUGUAGUUGACGAGGAGGAGGUAUAUCGAAUUUUCGGCGGAUGCCUCCAAA [C16G U46A] | 0.000198 ± 1.7e-05 s⁻¹ | 676 ± 180 µM | 4.2e-05 ± 2e-05 s⁻¹ | 9.94e-05 ± 2.2e-05 s⁻¹ | 0.000146 ± 2.2e-05 s⁻¹ | 0.000213 ± 4.4e-05 s⁻¹ |  |
| AUAAAAGCGCCAGAAGUACAGAAAUGUAGUUGACGAGGAGGAGGUUUAUCGAAAUUUCGGCGGAUGCCUCCAAA [C16G U54A] | 0.00588 ± 0.0013 s⁻¹ | 1860 ± 560 µM | 0.000487 ± 0.00011 s⁻¹ | 0.00144 ± 0.00019 s⁻¹ | 0.0024 ± 0.00062 s⁻¹ | 0.00601 ± 0.00089 s⁻¹ | 0.000135 ± 1.8e-05 s⁻¹ |
| AUAAAAGCGCCAGAAGUACAGAAAUGUAGAUGACGAGGAGGAGGUUUAUCGAAUUUUCGGCGGAGGCCUCCAAA [C16G U30A U65G] | 0.000143 ± 7.4e-06 s⁻¹ | 4140 ± 530 µM |  |  | 5.44e-05 ± 2e-05 s⁻¹ | 0.000101 ± 2.1e-05 s⁻¹ |  |
| AUAAAAGCGCCAGAAGUACAGAAAUGUAGAUGACGAGGAGGAGGUUUAUCGAAUUUUCGGCGGAUGCCUCCAAA [C16G U30A] | 0.000474 ± 6e-05 s⁻¹ | 1780 ± 370 µM | 3.9e-05 ± 1.2e-05 s⁻¹ | 0.00012 ± 2.3e-05 s⁻¹ | 0.000313 ± 6.1e-05 s⁻¹ | 0.000372 ± 9.2e-05 s⁻¹ |  |
| AUAAAAGCGCCAGAAGUACAGAAAUGUAGUUGACGAGGAGGAGGUUUAGCGAAUUUUCGGCGGAUGCCUCCAAA [C16G U49G] | 6.89e-05 ± 1.1e-05 s⁻¹ |  |  |  | 5.02e-05 ± 1.3e-05 s⁻¹ | 5.76e-05 ± 1.1e-05 s⁻¹ |  |
| AUAAAAGCGCCAGAAGUACAGAAAUGUAGUUGACGAGGAGGAGGUUUAUCGAAUUUUCAGCGGAUGCCUCGAAA [C16G G59A C71G] | 1.74e-05 ± 4.8e-06 s⁻¹ |  |  |  |  |  |  |
| AUAAAAGCGCCAGAAGUACAGAAAUGUAGUUGACGAGGAGGAGGUUUAUCGAAUUUUCGGCGGAUUCCUCCAAA [C16G G66U] | 0.000189 ± 5.3e-06 s⁻¹ | 2380 ± 200 µM |  | 3.85e-05 ± 1.1e-05 s⁻¹ | 9.99e-05 ± 1.6e-05 s⁻¹ | 0.000152 ± 1.3e-05 s⁻¹ |  |
| AUAAAAGCGCCAGAAGUACAGAAAUGUAGUUGACGAGGAGGAGGUUUAUCCAAUUUUCGGCGGAUGCCUCCAAA [C16G G51C] | < 1e-05 s⁻¹ |  |  |  |  |  | < 1e-05 s⁻¹ |
| AUAAAAGCGCCAGAAGUACAGAAAUGUAGUUGACGAGGAGGAGGAUUAUCGAAUUUUCGGCGGAUGCCUCCAAA [C16G U45A] | 0.0107 ± 0.0033 s⁻¹ | 2340 ± 1100 µM | 0.00048 ± 0.00013 s⁻¹ | 0.00226 ± 0.00044 s⁻¹ | 0.00423 ± 0.00082 s⁻¹ | 0.0101 ± 0.0013 s⁻¹ | 0.000245 ± 3.1e-05 s⁻¹ |

— the supplement of paper PMC7125110
